Source: patent publication US20240124563A1

Legend:
[1] = biological target: human MSLN full-length protein, recombinant, on CHO-K1 or HEK293T cells (human) (UniProt Q13421); assay: competitive FACS on CHO-K1-human MSLN-2C8 cells vs Biotin-Tab131; competitor at 0.064 nM
[2] = biological target: monkey MSLN full-length protein on HEK293T cells (monkey); assay: FACS, HEK293T-monkey-MSLN cells, antibody 0.032 nM
[3] = biological target: human MSLN full-length protein, recombinant, on CHO-K1 or HEK293T cells (human) (UniProt Q13421); assay: competitive FACS on CHO-K1-human MSLN-2C8 cells vs Biotin-Tab142; competitor at 8 nM
[4] = biological target: human MSLN full-length protein, recombinant, on CHO-K1 or HEK293T cells (human) (UniProt Q13421); assay: competitive FACS on CHO-K1-human MSLN-2C8 cells vs Biotin-Tab142; competitor at 0.32 nM
[5] = biological target: human MSLN protein endogenously expressed on tumor cells (Hela, OVCAR3) (human) (UniProt Q13421); assay: FACS, OVCAR3 cells, antibody 4 nM
[6] = biological target: human MSLN full-length protein, recombinant, on CHO-K1 or HEK293T cells (human) (UniProt Q13421); assay: competitive FACS on CHO-K1-human MSLN-2C8 cells vs Biotin-Tab142; competitor at 200 nM
[7] = biological target: monkey MSLN full-length protein on HEK293T cells (monkey); assay: FACS, HEK293T-monkey MSLN cells
[8] = biological target: human MSLN full-length protein, recombinant, on CHO-K1 or HEK293T cells (human) (UniProt Q13421); assay: competitive FACS on CHO-K1-human MSLN-2C8 cells vs Biotin-Tab131; competitor at 8 nM

Sequence of human MSLN full-length protein, recombinant, on CHO-K1 or HEK293T cells (human) (Q13421 other isoform, or with tags, fused parts or gaps limits assumed): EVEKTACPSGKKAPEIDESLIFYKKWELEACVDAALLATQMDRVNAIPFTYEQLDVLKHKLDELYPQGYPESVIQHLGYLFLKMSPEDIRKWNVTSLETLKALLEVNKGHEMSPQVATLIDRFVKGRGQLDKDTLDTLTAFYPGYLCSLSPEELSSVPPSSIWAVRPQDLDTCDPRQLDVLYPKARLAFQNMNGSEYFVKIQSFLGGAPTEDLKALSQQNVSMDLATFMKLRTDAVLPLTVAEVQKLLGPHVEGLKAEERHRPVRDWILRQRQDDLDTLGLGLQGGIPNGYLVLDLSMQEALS
Sequence of human MSLN protein endogenously expressed on tumor cells (Hela, OVCAR3) (human) (Q13421 other isoform, or with tags, fused parts or gaps): as the sequence (Q13421 other isoform, or with tags, fused parts or gaps limits assumed) above, with P14R counted along it

hIgG1 (antibody)
MFI of Biotin-Tab131 [1]: 12500
FACS signal (MFI) [2]: 125
MFI of Biotin-Tab142 [3]: 23000
MFI of Biotin-Tab142 [4]: 23300
FACS signal (MFI) [5]: 74
MFI of Biotin-Tab142 [6]: 24000
Max MFI [7]: 137
MFI of Biotin-Tab131 [8]: 13000
